Results taken from patent US20240270818A1 (PETMEDIX, published 2024).
Read-outs that look alike come from different tables or passages of the source.

Key:
[1] = target: NGF (species not stated at the place) (Homo sapiens (Human)) (UniProt P01138); experiment: cell-based or functional assay
[2] = target: NGF (species not stated at the place) (Homo sapiens (Human)) (UniProt P01138); experiment: cell-based or functional assay; remark: listed apart in the source
[3] = target: NGF (species not stated at the place) (Homo sapiens (Human), UniProt P01138 122-241); experiment: cell-based or functional assay
[4] = target: T1, human Nerve Growth Factor (human, UniProt P01138 122-241); experiment: SPR (Biacore 8K), fusion captured on Protein A chip, hNGF as analyte, multi-cycle kinetics
T1 construct: Bought recombinant protein; also called hNGF; human NGF
Description: (§1) Binding affinity of fusion proteins to human and rat NGF was assessed using Biacore 8K (Cytiva). Briefly, Protein A Sensor Chip (Cytiva) was docked into Biacore 8K, equilibrated for 30′ at RT and then Running Buffer (10 mM HEPES pH7.4 150 mM NaCl 3 mM EDTA and 0.005% Tween20) was applied to the SPR chip surface.
(§2) These were immobilised using 90 see association at 10 uL/min as capturing step, followed by injection of running buffer to remove any unbound product.
(§3) Kinetics were assessed using multi-cycle kinetics with capture step method (30 see association-300 see dissociation) followed by regeneration step (0.1M Glycine pH2.2 contact time 60 see FR 30 uL/min). Kinetics quantification have been performed using Biacore Insight following standard analyses methods.

rat Nerve Growth Factor = target: T2, rat Nerve Growth Factor (rat, UniProt P25427 122-241, limits assumed); experiment: SPR (Biacore 8K), fusion captured on Protein A chip
T2 construct: Bought recombinant protein; also called rNGF; rat NGF
Description: as §1, §2, §3

[5] = target: T1, human Nerve Growth Factor; experiment: cell-based or functional assay
[6] = target: T1, human Nerve Growth Factor; experiment: SPR (Biacore 8K), fusion captured on Protein A chip
Description: as §1, §2, §3

T2 sequence (P25427 122-241 limits assumed): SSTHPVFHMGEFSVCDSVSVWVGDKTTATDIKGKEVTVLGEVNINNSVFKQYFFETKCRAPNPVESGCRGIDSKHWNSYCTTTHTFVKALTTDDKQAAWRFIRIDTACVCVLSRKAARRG
T1 sequence (P01138 122-241 limits assumed): as the sequence (P25427 122-241 limits assumed) above, with T3S, V6I, M9R, T37M, A60D, E65D, T92M, D94G, A117V, G120A counted along it

| Binder | Bottom (%), PathHunter TrkA activation assay [1] [%] | Top (%), PathHunter TrkA activation assay [1] [%] | TrkA inhibition, PathHunter luminescence [1] [%] | Bottom (%), PathHunter TrkA activation assay [2] [%] | Top (%), PathHunter TrkA activation assay [2] [%] | Bottom (%), PathHunter TrkA activation assay [3] [%] | IC50 (nM), PathHunter TrkA activation assay [3] [nM] | Top (%), PathHunter TrkA activation assay [3] [%] | Kd [4] [nM] | binding result (rat Nerve Growth Factor) | IC50 (nM), inhibition of TF-1 cell proliferation [5] [nM] | ICMAX (%), inhibition of TF-1 cell proliferation [5] [%] | fold reduced affinity relative to PetML 119 wt [6] [fold] |
| --- | --- | --- | --- | --- | --- | --- | --- | --- | --- | --- | --- | --- | --- |
| Bedinvetmab (antibody, INN chains, looked up, V domains shown) VH: EVQLVESGGDLVKPGGSLRLSCVASGFTFSSHGMHWVRQSPGKGLQWVAVINSGGSSTYYTDAVKGRFTISRDNAKNTVYLQMNSLRAEDTAMYYCAKESVGGWEQLVGPHFDYWGQGTLVIVSS VL: QSVLTQPTSVSGSLGQRVTISCSGSTNNIGILGASWYQLFPGKAPKLLVYGNGNRPSGVPDRFSGADSGDSVTLTITGLQAEDEADYYCQSFDTTLGAHVFGGGTHLTVL | 5.35 | 123 | 100 | 2.11 | 93.5 |  |  |  |  |  |  |  |  |
| PetML 119-S109Y (canine p75NTR ECD S109Y-canine IgGB wt Fc) (Fc fusion, Signal peptide (first 19 residues) left out as for m1) KEACPTGLYTHSGECCKACNLGEGVAQPCGANQTVCEPCLDSVTFSDVVSATEPCKPCTECVGLQSMSAPCVEADDAVCRCAYGYYQDETTGRCEACRVCEAGSGLVFYCQDRQNTVCEECPDGTYSDEANHVDPCLPCTVCEDTERQLRECTRWADAECEEIPGRGGGGRENGRVPRPPDCPKCPAPEMLGGPSVFIFPPKPKDTLLIARTPEVTCVVVDLDPEDPEVQISWFVDGKQMQTAKTQPREEQFNGTYRVVSVLPIGHQDWLKGKQFTCKVNNKALPSPIERTISKARGQAHQPSVYVLPPSREELSKNTVSLTCLIKDFFPPDIDVEWQSNGQQEPESKYRTTPPQLDEDGSYFLYSKLSVDKSRWQRGDTFICAVMHEALHNHYTQKSLSHSPGK |  |  |  |  |  | 7.79 | 2.15 | 87.3 | 0.225 | binds | 2.15 | 93.5 |  |
| PetML 119-D134L (canine p75NTR ECD D134L-canine IgGB wt Fc) (Fc fusion, Signal peptide (first 19 residues) left out as for m1) KEACPTGLYTHSGECCKACNLGEGVAQPCGANQTVCEPCLDSVTFSDVVSATEPCKPCTECVGLQSMSAPCVEADDAVCRCAYGYYQDETTGRCEACRVCEAGSGLVFSCQDRQNTVCEECPDGTYSDEANHVLPCLPCTVCEDTERQLRECTRWADAECEEIPGRGGGGRENGRVPRPPDCPKCPAPEMLGGPSVFIFPPKPKDTLLIARTPEVTCVVVDLDPEDPEVQISWFVDGKQMQTAKTQPREEQFNGTYRVVSVLPIGHQDWLKGKQFTCKVNNKALPSPIERTISKARGQAHQPSVYVLPPSREELSKNTVSLTCLIKDFFPPDIDVEWQSNGQQEPESKYRTTPPQLDEDGSYFLYSKLSVDKSRWQRGDTFICAVMHEALHNHYTQKSLSHSPGK |  |  |  |  |  | 53.7 | 20.8 | 82.7 | 6.8 |  | 329 | 70.5 | 20 |
| PetML 119-V133R (canine p75NTR ECD V133R-canine IgGB wt Fc) (Fc fusion, Signal peptide (first 19 residues) left out as for m1) KEACPTGLYTHSGECCKACNLGEGVAQPCGANQTVCEPCLDSVTFSDVVSATEPCKPCTECVGLQSMSAPCVEADDAVCRCAYGYYQDETTGRCEACRVCEAGSGLVFSCQDRQNTVCEECPDGTYSDEANHRDPCLPCTVCEDTERQLRECTRWADAECEEIPGRGGGGRENGRVPRPPDCPKCPAPEMLGGPSVFIFPPKPKDTLLIARTPEVTCVVVDLDPEDPEVQISWFVDGKQMQTAKTQPREEQFNGTYRVVSVLPIGHQDWLKGKQFTCKVNNKALPSPIERTISKARGQAHQPSVYVLPPSREELSKNTVSLTCLIKDFFPPDIDVEWQSNGQQEPESKYRTTPPQLDEDGSYFLYSKLSVDKSRWQRGDTFICAVMHEALHNHYTQKSLSHSPGK |  |  |  |  |  | 14.3 | 2.56 | 49.3 | 0.346 | binds | 5.06 | 80.5 |  |
| PetML 119-S109H (canine p75NTR ECD S109H-canine IgGB wt Fc) (Fc fusion, Signal peptide left out as for m1; If the listing holds it too, the entry is 425 residues long) KEACPTGLYTHSGECCKACNLGEGVAQPCGANQTVCEPCLDSVTFSDVVSATEPCKPCTECVGLQSMSAPCVEADDAVCRCAYGYYQDETTGRCEACRVCEAGSGLVFHCQDRQNTVCEECPDGTYSDEANHVDPCLPCTVCEDTERQLRECTRWADAECEEIPGRGGGGRENGRVPRPPDCPKCPAPEMLGGPSVFIFPPKPKDTLLIARTPEVTCVVVDLDPEDPEVQISWFVDGKQMQTAKTQPREEQFNGTYRVVSVLPIGHQDWLKGKQFTCKVNNKALPSPIERTISKARGQAHQPSVYVLPPSREELSKNTVSLTCLIKDFFPPDIDVEWQSNGQQEPESKYRTTPPQLDEDGSYFLYSKLSVDKSRWQRGDTFICAVMHEALHNHYTQKSLSHSPGK |  |  |  |  |  | 10.3 | 2.2 | 48.3 | 0.267 | binds | 0.17 | 88.5 |  |
| PetML 119-E75T (canine p75NTR ECD E75T-canine IgGB wt Fc) (Fc fusion, Signal peptide (first 19 residues) left out as for m1) KEACPTGLYTHSGECCKACNLGEGVAQPCGANQTVCEPCLDSVTFSDVVSATEPCKPCTECVGLQSMSAPCVEATDAVCRCAYGYYQDETTGRCEACRVCEAGSGLVFSCQDRQNTVCEECPDGTYSDEANHVDPCLPCTVCEDTERQLRECTRWADAECEEIPGRGGGGRENGRVPRPPDCPKCPAPEMLGGPSVFIFPPKPKDTLLIARTPEVTCVVVDLDPEDPEVQISWFVDGKQMQTAKTQPREEQFNGTYRVVSVLPIGHQDWLKGKQFTCKVNNKALPSPIERTISKARGQAHQPSVYVLPPSREELSKNTVSLTCLIKDFFPPDIDVEWQSNGQQEPESKYRTTPPQLDEDGSYFLYSKLSVDKSRWQRGDTFICAVMHEALHNHYTQKSLSHSPGK |  |  |  |  |  | 44.5 | 82.6 | 72.6 | 12.4 |  | 18.2 | 72.5 | 40 |
| PetML 119 (canine p75NTR ECD-canine IgGB wt Fc protein fusion) (Fc fusion, The end, 422, is my own count; also called WT molecule) KEACPTGLYTHSGECCKACNLGEGVAQPCGANQTVCEPCLDSVTFSDVVSATEPCKPCTECVGLQSMSAPCVEADDAVCRCAYGYYQDETTGRCEACRVCEAGSGLVFSCQDRQNTVCEECPDGTYSDEANHVDPCLPCTVCEDTERQLRECTRWADAECEEIPGGGGRENGRVPRPPDCPKCPAPEMLGGPSVFIFPPKPKDTLLIARTPEVTCVVVDLDPEDPEVQISWFVDGKQMQTAKTQPREEQFNGTYRVVSVLPIGHQDWLKGKQFTCKVNNKALPSPIERTISKARGQAHQPSVYVLPPSREELSKNTVSLTCLIKDFFPPDIDVEWQSNGQQEPESKYRTTPPQLDEDGSYFLYSKLSVDKSRWQRGDTFICAVMHEALHNHYTQKSLSHSPGK |  |  |  |  |  | 9.5 | 8.04 |  | 0.309 | binds | 4.46 | 73.1 |  |
